According to patent US20210179726A1 (DINGFU BIOTARGET, published 2021):

Columns and labels:
[1] = target: T1, hGITR-EGFP on HEK293 cells (human, UniProt Q9Y5U5 26-241); assay: FACS on hGITR-EGFP HEK293 cells
T1 construct: EGFP fusion expressed on transfected HEK293 cells; also called human GITR
T1 sequence (looked up): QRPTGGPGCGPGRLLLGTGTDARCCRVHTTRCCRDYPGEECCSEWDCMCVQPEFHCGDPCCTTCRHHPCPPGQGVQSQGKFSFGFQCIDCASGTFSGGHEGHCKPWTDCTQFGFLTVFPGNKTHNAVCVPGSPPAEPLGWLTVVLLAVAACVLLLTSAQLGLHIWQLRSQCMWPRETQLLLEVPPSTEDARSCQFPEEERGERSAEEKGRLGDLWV
Procedure: (§1) The hCD137-EGFP, hOX40-EGFP and hGITR-EGFP cells as described in Example 1 were washed twice in PBS, 10 μg/ml of each chimeric antibody as prepared in Example 3 (m2E7, m2B8, m4H3, m3E7, m1A8, m4G1, m2G3, m2F11 and m3B8) was added to each type of cells and incubated at 4° C. for 30 min. Then it was washed twice with PBS, anti-human Ig-APC (Jackson ImmunoResearch Laboratories, Cat #109-135-098) was added and were incubated at 4° C. for 30 min, washed twice with PBS and resuspended in 300 μl PBS. In FIG. 2, NC represents negative control (PBS), a-hlg-APC represents secondary antibody only, the other panels represent results obtained with each of the corresponding clone, respectively.

[2] = target: T2, hCD137-EGFP on HEK293 cells (human, UniProt Q07011 24-255); assay: FACS dot plot on CD137-EGFP HEK293 cells, anti-human Ig-APC secondary
T2 construct: EGFP fusion expressed on transfected HEK293 cells; also called human CD137
Procedure: as §1

[3] = target: T3, hOX40-EGFP on HEK293 cells (human, UniProt P43489 29-277); assay: FACS dot plot on OX40-EGFP HEK293 cells, anti-human Ig-APC secondary
T3 construct: EGFP fusion expressed on transfected HEK293 cells; also called human OX40
T3 sequence (looked up): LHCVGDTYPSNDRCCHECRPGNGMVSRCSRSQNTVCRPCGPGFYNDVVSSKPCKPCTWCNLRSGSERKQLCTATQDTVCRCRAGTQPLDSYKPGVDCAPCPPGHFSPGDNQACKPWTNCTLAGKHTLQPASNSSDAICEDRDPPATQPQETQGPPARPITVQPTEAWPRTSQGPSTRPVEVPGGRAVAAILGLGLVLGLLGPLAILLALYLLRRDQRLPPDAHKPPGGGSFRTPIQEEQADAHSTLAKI
Procedure: as §1

Measured: binding result

T2 sequence (Q07011 24-255): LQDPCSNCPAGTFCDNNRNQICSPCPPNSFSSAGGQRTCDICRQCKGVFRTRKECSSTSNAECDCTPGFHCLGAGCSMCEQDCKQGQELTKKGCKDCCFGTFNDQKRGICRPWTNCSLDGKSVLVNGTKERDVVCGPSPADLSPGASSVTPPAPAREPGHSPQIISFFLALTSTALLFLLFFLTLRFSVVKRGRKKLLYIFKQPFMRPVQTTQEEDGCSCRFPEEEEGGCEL

B1: m3B8 (antibody, human IgG1, V domains shown)
VH: QVQLQESGPGLVAPSQSLSITCTVSGFSLTNYAVSWVRQPPGKGLEWLGVIWGDGTTNYHSALISRLIISKDNSKSQVFLKLNSLQTDDTATYYCAKEGDYGDYVGWFAYWGQGTLVTVSA
VL: DIVLTQSPASLAVSLGQRATISCRASESVEYYGTSLMQWYQQKPGQPPKLLIYAASNVESGVPARFSGSGSGTDFSLNIHPVEEDDFAMYFCQQSRKIPYTFGGGTKLEIK
notes: Chimeric antibody: mouse VH/VL on human IgG1 / human kappa constant regions; also called clone 3B8; not shown: human IgG1 constant region, UniProt P01857
no binding (tested: 10 µg/ml): [1] | [2] | [3]

B2: m2G3 (antibody, human IgG1, V domains shown)
VH: EVKLQESGGGLVKPGGSLKLSCAASGFTFSSFAMSWIRQTPEKRLEWVAAISDGGTYTYYPNNVKGRFTISRDDAKNNLYLQMSHLKSEDTAMYYCVRNRGGPFDYWGQGTTLTVSS
VL: DIVLTQSPAIMSASPGEKVTMTCSASSSVSYMNWYQQKSGTSPKRWIYDTSKLASGVPVRFSGSGSGTSYSLTISSMEAEDAATYYCQQWNSNPPTFGAGTKLELK
notes: Chimeric antibody: mouse VH/VL on human IgG1 / human kappa constant regions; also called clone 2G3; not shown: human IgG1 constant region, UniProt P01857
no binding (tested: 10 µg/ml): [1] | [2] | [3]
